Measurements reported in patent US20250320302A1 (EVOTEC INTERNATIONAL, published 2025).
Like-named read-outs stand apart in the source and are kept apart here.

What was measured:
Experiment in all cases: cell-based or functional assay
[1] = biological target: T1, human CD40 (human, UniProt P25942 21-277)
[2] = biological target: T1, human CD40; remark: listed apart in the source
[3] = biological target: T2, human type I IFN receptor on HEK-Blue IFN-α/β cells (human, UniProt P17181 28-557; P48551 27-515)
T2 sequence (looked up) 1: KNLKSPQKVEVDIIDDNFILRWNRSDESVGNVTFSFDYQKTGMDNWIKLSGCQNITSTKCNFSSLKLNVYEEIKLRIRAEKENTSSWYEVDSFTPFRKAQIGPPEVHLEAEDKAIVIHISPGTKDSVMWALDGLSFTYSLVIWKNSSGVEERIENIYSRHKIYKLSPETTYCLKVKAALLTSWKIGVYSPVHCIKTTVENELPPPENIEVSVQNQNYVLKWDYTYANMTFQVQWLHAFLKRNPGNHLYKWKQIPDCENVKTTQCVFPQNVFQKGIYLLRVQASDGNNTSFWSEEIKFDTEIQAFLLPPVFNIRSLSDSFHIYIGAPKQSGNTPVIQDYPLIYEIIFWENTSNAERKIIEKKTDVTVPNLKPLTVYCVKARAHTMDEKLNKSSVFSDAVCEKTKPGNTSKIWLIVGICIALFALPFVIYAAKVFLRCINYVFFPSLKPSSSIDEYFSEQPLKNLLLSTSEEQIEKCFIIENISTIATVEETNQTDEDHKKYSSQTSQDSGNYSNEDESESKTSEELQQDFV
T2 sequence (looked up) 2: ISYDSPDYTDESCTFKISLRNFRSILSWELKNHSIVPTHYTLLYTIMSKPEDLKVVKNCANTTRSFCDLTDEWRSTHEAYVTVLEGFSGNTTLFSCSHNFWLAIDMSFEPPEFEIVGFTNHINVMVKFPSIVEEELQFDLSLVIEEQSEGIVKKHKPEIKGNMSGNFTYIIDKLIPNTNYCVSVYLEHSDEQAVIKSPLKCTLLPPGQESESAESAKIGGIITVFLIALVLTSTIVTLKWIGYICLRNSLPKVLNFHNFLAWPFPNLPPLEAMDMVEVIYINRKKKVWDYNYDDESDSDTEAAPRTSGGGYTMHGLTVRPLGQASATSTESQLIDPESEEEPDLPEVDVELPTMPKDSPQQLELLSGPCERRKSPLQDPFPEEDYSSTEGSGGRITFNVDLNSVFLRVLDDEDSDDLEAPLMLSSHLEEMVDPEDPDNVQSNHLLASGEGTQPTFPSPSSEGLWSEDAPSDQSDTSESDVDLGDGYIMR

[4] = biological target: T1, human CD40; remark: listed apart in the source
[5] = biological target: human IFNλ receptor on HEK-Blue IFN-λ cells (human)
[6] = biological target: human IFNγ receptor on HEK-Blue IFN-γ cells (human)

T1 sequence (P25942 21-277): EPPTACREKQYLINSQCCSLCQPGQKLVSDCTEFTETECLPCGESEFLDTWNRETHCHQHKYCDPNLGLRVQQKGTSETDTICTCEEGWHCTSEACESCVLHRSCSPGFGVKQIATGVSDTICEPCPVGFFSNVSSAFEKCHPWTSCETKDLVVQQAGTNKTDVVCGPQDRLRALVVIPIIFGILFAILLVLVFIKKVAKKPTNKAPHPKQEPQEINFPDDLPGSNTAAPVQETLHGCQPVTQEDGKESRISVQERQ

B1: 3G5 (antibody, human IgG2, kappa)
heavy: QVQLVESGGGVVQPGKSLRLSCAASGFTFSSNGIHWVRQAPGKGLEWVAVIWSDGSNKFYADSVKGRFTISRDNSKNTLYLQMNSLRAEDTAVYYCARASGSGSYYNFFDYWGQGTLVTVSSASTKGPSVFPLAPCSRSTSESTAALGCLVKDYFPEPVTVSWNSGALTSGVHTFPAVLQSSGLYSLSSVVTVPSSNFGTQTYTCNVDHKPSNTKVDKTVERKCCVECPPCPAPPVAGPSVFLFPPKPKDTLMISRTPEVTCVVVDVSHEDPEVQFNWYVDGVEVHNAKTKPREEQFNSTFRVVSVLTVVHQDWLNGKEYKCKVSNKGLPAPIEKTISKTKGQPREPQVYTLPPSREEMTKNQVSLTCLVKGFYPSDIAVEWESNGQPENNYKTTPPMLDSDGSFFLYSKLTVDKSRWQQGNVFSCSVMHEALHNHYTQKSLSLSPG
light: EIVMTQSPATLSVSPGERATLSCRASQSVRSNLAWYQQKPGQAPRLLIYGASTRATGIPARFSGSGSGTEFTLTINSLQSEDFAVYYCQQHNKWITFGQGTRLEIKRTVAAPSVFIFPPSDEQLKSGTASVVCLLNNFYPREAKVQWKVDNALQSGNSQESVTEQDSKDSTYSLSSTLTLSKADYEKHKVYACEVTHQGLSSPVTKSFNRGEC
**Q.** Which “CD40 EC50, mean (HEK-Blue CD40L NFκB-SEAP reporter cells)” value [1] does the source give for B1 here?
**A.** 9.3 ng/mL

B2: IFA108 (antibody, human IgG2, kappa)
heavy: QVQLVESGGGVVQPGKSLRLSCAASGFTFSSNGIHWVRQAPGKGLEWVAVIWSDGSNKFYADSVKGRFTISRDNSKNTLYLQMNSLRAEDTAVYYCARASGSGSYYNFFDYWGQGTLVTVSSASTKGPSVFPLAPCSRSTSESTAALGCLVKDYFPEPVTVSWNSGALTSGVHTFPAVLQSSGLYSLSSVVTVPSSNFGTQTYTCNVDHKPSNTKVDKTVERKCCVECPPCPAPPVAGPSVFLFPPKPKDTLMISRTPEVTCVVVDVSHEDPEVQFNWYVDGVEVHNAKTKPREEQFNSTFRVVSVLTVVHQDWLNGKEYKCKVSNKGLPAPIEKTISKTKGQPREPQVYTLPPSREEMTKNQVSLTCLVKGFYPSDIAVEWESNGQPENNYKTTPPMLDSDGSFFLYSKLTVDKSRWQQGNVFSCSVMHEALHNHYTQKSLSLSPGAEAAAKEAAAKASYNLLGFLQRSSNFQCQKLLWQLNGRLEYCLKDRMNFDIPEEIKQLQQFQKEDAALTIYEMLQNIFAIFRQDSSSTGWNETIVENLLANVYHQINHLKTVLEEKLEKEDFTRGKLMSSLHLKRYYGRILHYLKAKEYSHCAWTIVRVEILRNFYFINRLTGYLRN
light: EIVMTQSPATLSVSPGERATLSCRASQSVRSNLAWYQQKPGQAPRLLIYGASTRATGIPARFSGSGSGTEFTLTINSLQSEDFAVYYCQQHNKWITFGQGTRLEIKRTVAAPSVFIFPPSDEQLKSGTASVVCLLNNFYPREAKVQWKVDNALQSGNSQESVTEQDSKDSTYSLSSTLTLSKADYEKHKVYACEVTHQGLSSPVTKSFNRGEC
**Q.** B2 was tested. Which “CD40 EC50 (HEK-Blue CD40L NFκB-SEAP reporter cells)” value [2] did it give?
**A.** 37.3 ng/mL

**Q.** And the “IFNβ EC50 (HEK-Blue IFN-α/β SEAP reporter cells)” value (“IFNβ EC50” below) [3]?
**A.** 1.27 ng/mL

B3: IFA109 (antibody, human IgG2, kappa)
heavy: QVQLVESGGGVVQPGKSLRLSCAASGFTFSSNGIHWVRQAPGKGLEWVAVIWSDGSNKFYADSVKGRFTISRDNSKNTLYLQMNSLRAEDTAVYYCARASGSGSYYNFFDYWGQGTLVTVSSASTKGPSVFPLAPCSRSTSESTAALGCLVKDYFPEPVTVSWNSGALTSGVHTFPAVLQSSGLYSLSSVVTVPSSNFGTQTYTCNVDHKPSNTKVDKTVERKCCVECPPCPAPPVAGPSVFLFPPKPKDTLMISRTPEVTCVVVDVSHEDPEVQFNWYVDGVEVHNAKTKPREEQFNSTFRVVSVLTVVHQDWLNGKEYKCKVSNKGLPAPIEKTISKTKGQPREPQVYTLPPSREEMTKNQVSLTCLVKGFYPSDIAVEWESNGQPENNYKTTPPMLDSDGSFFLYSKLTVDKSRWQQGNVFSCSVMHEALHNHYTQKSLSLSPGAEAAAKEAAAKASYNLLGFLQRSSNFQSQKLLWQLNGRLEYCLKDRMNFDIPEEIKQLQQFQKEDAALTIYEMLQNIFAIFRQDSSSTGWNETIVENLLANVYHQINHLKTVLEEKLEKEDFTRGKLMSSLHLKRYYGRILHYLKAKEYSHCAWTIVRVEILRNFYFINRLTGYLRN
light: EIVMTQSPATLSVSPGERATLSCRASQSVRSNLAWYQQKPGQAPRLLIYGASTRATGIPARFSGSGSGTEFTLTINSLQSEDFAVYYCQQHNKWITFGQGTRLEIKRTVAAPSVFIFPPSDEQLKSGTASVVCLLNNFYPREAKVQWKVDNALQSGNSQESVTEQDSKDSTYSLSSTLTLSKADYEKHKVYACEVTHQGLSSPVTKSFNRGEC
**Q.** With B3 as the binder, how does the “CD40 EC50 (HEK-Blue CD40L NFκB-SEAP reporter cells)” value [2] read?
**A.** 30 ng/mL

**Q.** What about the “IFNβ EC50” value [3] of the same binder?
**A.** 0.45 ng/mL

B4: IFA44 (antibody, human IgG2, kappa)
light: DIQMTQSPSSVSASVGDRVTITCRASQGIYSWLAWYQQKPGKAPNLLIYTASTLQSGVPSRFSGSGSGTDFTLTISSLQPEDFATYYCQQANIFPLTFGGGTKVEIKRTVAAPSVFIFPPSDEQLKSGTASVVCLLNNFYPREAKVQWKVDNALQSGNSQESVTEQDSKDSTYSLSSTLTLSKADYEKHKVYACEVTHQGLSSPVTKSFNRGECGGGGSGGGGSGGGGSGGGGSVPVARLHGALPDARGCHIAQFKSLSPQELQAFKRAKDALEESLLLKDCRCHSRLFPRTWDLRQLQVRERPMALEAELALTLKVLEATADTDPALVDVLDQPLHTLHHILSQFRACIQPQPTAGPRTRGRLHHWLYRLQEAPKKESPGCLEASVTFNLFRLLTRDLNCVASGDLCV
heavy: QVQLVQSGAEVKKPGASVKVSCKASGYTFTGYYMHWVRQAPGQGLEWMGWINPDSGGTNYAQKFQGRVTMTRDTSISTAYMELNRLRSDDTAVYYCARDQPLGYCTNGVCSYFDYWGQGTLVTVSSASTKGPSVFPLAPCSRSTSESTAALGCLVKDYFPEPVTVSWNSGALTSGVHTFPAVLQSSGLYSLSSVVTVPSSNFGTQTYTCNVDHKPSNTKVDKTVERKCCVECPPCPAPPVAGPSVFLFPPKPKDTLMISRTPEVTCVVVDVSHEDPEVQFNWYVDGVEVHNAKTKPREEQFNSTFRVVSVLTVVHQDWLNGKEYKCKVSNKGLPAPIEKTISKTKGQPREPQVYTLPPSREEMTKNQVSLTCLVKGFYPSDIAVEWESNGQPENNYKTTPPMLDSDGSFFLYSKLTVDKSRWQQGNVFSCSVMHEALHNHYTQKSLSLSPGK
**Q.** How did the “CD40 EC50 (HEK-Blue CD40L NFκB-SEAP reporter cells)” value [4] turn out when B4 was run?
**A.** 41.4 ng/mL

**Q.** And the “IFNλ EC50 (HEK-Blue IFNλ reporter cells)” value [5]?
**A.** 0.153 ng/mL

B5: IFA45 (antibody, human IgG2, kappa)
heavy: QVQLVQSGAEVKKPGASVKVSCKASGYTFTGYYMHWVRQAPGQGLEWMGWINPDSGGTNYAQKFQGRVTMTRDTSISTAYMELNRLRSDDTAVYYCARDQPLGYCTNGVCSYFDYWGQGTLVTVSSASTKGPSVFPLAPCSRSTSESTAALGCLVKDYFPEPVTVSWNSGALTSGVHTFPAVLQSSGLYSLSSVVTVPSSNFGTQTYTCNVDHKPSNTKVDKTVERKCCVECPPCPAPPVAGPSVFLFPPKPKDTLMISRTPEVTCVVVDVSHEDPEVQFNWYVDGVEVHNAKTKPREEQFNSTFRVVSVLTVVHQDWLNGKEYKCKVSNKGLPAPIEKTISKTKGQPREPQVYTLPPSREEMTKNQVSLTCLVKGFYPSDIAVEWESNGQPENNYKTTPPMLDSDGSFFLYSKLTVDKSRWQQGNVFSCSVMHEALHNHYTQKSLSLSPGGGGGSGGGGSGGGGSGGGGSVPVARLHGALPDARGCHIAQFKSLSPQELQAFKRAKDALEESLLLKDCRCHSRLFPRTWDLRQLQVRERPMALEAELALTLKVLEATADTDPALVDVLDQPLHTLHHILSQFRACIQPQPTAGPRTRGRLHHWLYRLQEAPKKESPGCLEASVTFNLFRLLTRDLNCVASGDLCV
light: DIQMTQSPSSVSASVGDRVTITCRASQGIYSWLAWYQQKPGKAPNLLIYTASTLQSGVPSRFSGSGSGTDFTLTISSLQPEDFATYYCQQANIFPLTFGGGTKVEIKRTVAAPSVFIFPPSDEQLKSGTASVVCLLNNFYPREAKVQWKVDNALQSGNSQESVTEQDSKDSTYSLSSTLTLSKADYEKHKVYACEVTHQGLSSPVTKSFNRGEC
**Q.** For B5, which “CD40 EC50 (HEK-Blue CD40L NFκB-SEAP reporter cells)” value [4] is on record?
**A.** 25.8 ng/mL

**Q.** What about the “IFNλ EC50 (HEK-Blue IFNλ reporter cells)” value [5] of the same binder?
**A.** < 0.001 ng/mL

B6: CP870,893 (antibody, human IgG2, kappa)
heavy: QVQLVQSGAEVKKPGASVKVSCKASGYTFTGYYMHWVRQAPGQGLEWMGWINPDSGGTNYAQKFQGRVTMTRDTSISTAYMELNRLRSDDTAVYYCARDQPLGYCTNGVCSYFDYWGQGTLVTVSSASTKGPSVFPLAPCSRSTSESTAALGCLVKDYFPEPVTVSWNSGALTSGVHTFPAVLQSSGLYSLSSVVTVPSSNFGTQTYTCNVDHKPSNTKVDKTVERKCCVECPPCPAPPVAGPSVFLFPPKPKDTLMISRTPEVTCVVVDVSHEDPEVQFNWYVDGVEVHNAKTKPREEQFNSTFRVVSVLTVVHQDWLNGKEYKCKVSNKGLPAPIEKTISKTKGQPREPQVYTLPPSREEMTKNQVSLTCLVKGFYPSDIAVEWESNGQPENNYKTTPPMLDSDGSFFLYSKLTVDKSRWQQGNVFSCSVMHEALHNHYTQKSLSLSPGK
light: DIQMTQSPSSVSASVGDRVTITCRASQGIYSWLAWYQQKPGKAPNLLIYTASTLQSGVPSRFSGSGSGTDFTLTISSLQPEDFATYYCQQANIFPLTFGGGTKVEIKRTVAAPSVFIFPPSDEQLKSGTASVVCLLNNFYPREAKVQWKVDNALQSGNSQESVTEQDSKDSTYSLSSTLTLSKADYEKHKVYACEVTHQGLSSPVTKSFNRGEC
**Q.** How did the “CD40 EC50 (HEK-Blue CD40L NFκB-SEAP reporter cells)” value [1] turn out when B6 was run?
**A.** 30 to 80 ng/mL

**Q.** And the “CD40 EC50, mean (HEK-Blue CD40L NFκB-SEAP reporter cells)” value [1]?
**A.** 48 ng/mL

**Q.** And the “CD40 EC50 in the experiment of FIG. 3 (HEK-Blue CD40L NFκB-SEAP reporter cells)” value [1]?
**A.** 57 ng/mL

B7: IFA42 (antibody, human IgG2, kappa)
light: DIQMTQSPSSVSASVGDRVTITCRASQGIYSWLAWYQQKPGKAPNLLIYTASTLQSGVPSRFSGSGSGTDFTLTISSLQPEDFATYYCQQANIFPLTFGGGTKVEIKRTVAAPSVFIFPPSDEQLKSGTASVVCLLNNFYPREAKVQWKVDNALQSGNSQESVTEQDSKDSTYSLSSTLTLSKADYEKHKVYACEVTHQGLSSPVTKSFNRGECGGGGSGGGGSGGGGSGGGGSQDPYVKEAENLKKYFNAGHSDVADNGTLFLGILKNWKEESDRKIMQSQIVSFYFKLFKNFKDDQSIQKSVETIKEDMNVKFFNSNKKKRDDFEKLTNYSVTDLNVQRKAIHELIQVMAELSPAAKTGKRKRSQMLFRGRRASQ
heavy: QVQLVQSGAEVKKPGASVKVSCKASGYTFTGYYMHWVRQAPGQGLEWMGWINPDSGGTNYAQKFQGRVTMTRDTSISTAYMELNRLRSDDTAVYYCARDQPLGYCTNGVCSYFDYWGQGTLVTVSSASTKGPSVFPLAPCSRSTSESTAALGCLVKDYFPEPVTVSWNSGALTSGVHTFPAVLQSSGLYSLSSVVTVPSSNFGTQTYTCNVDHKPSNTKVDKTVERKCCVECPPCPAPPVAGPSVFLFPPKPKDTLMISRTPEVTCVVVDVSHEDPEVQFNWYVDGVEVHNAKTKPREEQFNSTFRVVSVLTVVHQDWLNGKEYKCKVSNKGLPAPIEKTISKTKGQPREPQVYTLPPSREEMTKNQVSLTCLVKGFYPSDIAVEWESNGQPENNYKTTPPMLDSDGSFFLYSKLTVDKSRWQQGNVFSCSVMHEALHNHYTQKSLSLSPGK
**Q.** What does the source list for B7?
**A.** CD40 EC50 (HEK-Blue CD40L NFκB-SEAP reporter cells) [4]: 65.6 ng/mL; IFNγ EC50 (HEK-Blue IFNγ reporter cells) [6]: 15.4 ng/mL

B8: IFA106 (antibody, human IgG2, kappa)
heavy: QVQLVESGGGVVQPGKSLRLSCAASGFTFSSNGIHWVRQAPGKGLEWVAVIWSDGSNKFYADSVKGRFTISRDNSKNTLYLQMNSLRAEDTAVYYCARASGSGSYYNFFDYWGQGTLVTVSSASTKGPSVFPLAPCSRSTSESTAALGCLVKDYFPEPVTVSWNSGALTSGVHTFPAVLQSSGLYSLSSVVTVPSSNFGTQTYTCNVDHKPSNTKVDKTVERKCCVECPPCPAPPVAGPSVFLFPPKPKDTLMISRTPEVTCVVVDVSHEDPEVQFNWYVDGVEVHNAKTKPREEQFNSTFRVVSVLTVVHQDWLNGKEYKCKVSNKGLPAPIEKTISKTKGQPREPQVYTLPPSREEMTKNQVSLTCLVKGFYPSDIAVEWESNGQPENNYKTTPPMLDSDGSFFLYSKLTVDKSRWQQGNVFSCSVMHEALHNHYTQKSLSLSPGPAPASYNLLGFLQRSSNFQCQKLLWQLNGRLEYCLKDRMNFDIPEEIKQLQQFQKEDAALTIYEMLQNIFAIFRQDSSSTGWNETIVENLLANVYHQINHLKTVLEEKLEKEDFTRGKLMSSLHLKRYYGRILHYLKAKEYSHCAWTIVRVEILRNFYFINRLTGYLRN
light: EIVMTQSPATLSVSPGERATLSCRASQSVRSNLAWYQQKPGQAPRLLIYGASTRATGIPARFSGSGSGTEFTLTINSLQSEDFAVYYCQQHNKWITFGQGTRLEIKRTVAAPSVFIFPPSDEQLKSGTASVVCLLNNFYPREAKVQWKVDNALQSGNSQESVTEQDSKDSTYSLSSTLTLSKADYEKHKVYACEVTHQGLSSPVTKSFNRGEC
**Q.** B8 was tested. Which “CD40 EC50 (HEK-Blue CD40L NFκB-SEAP reporter cells)” value [2] did it give?
**A.** 190 ng/mL

**Q.** And the “IFNβ EC50” value [3]?
**A.** 10.3 ng/mL

B9: IFA107 (antibody, human IgG2, kappa)
heavy: QVQLVESGGGVVQPGKSLRLSCAASGFTFSSNGIHWVRQAPGKGLEWVAVIWSDGSNKFYADSVKGRFTISRDNSKNTLYLQMNSLRAEDTAVYYCARASGSGSYYNFFDYWGQGTLVTVSSASTKGPSVFPLAPCSRSTSESTAALGCLVKDYFPEPVTVSWNSGALTSGVHTFPAVLQSSGLYSLSSVVTVPSSNFGTQTYTCNVDHKPSNTKVDKTVERKCCVECPPCPAPPVAGPSVFLFPPKPKDTLMISRTPEVTCVVVDVSHEDPEVQFNWYVDGVEVHNAKTKPREEQFNSTFRVVSVLTVVHQDWLNGKEYKCKVSNKGLPAPIEKTISKTKGQPREPQVYTLPPSREEMTKNQVSLTCLVKGFYPSDIAVEWESNGQPENNYKTTPPMLDSDGSFFLYSKLTVDKSRWQQGNVFSCSVMHEALHNHYTQKSLSLSPGPAPASYNLLGFLQRSSNFQSQKLLWQLNGRLEYCLKDRMNFDIPEEIKQLQQFQKEDAALTIYEMLQNIFAIFRQDSSSTGWNETIVENLLANVYHQINHLKTVLEEKLEKEDFTRGKLMSSLHLKRYYGRILHYLKAKEYSHCAWTIVRVEILRNFYFINRLTGYLRN
light: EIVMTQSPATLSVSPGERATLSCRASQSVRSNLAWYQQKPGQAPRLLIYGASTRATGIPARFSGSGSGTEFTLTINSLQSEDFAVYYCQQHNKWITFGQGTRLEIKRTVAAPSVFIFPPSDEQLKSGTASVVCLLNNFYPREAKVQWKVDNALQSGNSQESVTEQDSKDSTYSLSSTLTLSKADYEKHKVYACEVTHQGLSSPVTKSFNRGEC
**Q.** How did the “CD40 EC50 (HEK-Blue CD40L NFκB-SEAP reporter cells)” value [2] turn out when B9 was run?
**A.** 142 ng/mL

**Q.** What about the “IFNβ EC50” value [3] of the same binder?
**A.** 2.03 ng/mL
